The values below come from article PMC4393884 (Structure (London, England : 1993), 2014).

The chains are these.
T1: truncated PR-B (233-933) (human, UniProt P06401 233-933)
T1 sequence (looked up): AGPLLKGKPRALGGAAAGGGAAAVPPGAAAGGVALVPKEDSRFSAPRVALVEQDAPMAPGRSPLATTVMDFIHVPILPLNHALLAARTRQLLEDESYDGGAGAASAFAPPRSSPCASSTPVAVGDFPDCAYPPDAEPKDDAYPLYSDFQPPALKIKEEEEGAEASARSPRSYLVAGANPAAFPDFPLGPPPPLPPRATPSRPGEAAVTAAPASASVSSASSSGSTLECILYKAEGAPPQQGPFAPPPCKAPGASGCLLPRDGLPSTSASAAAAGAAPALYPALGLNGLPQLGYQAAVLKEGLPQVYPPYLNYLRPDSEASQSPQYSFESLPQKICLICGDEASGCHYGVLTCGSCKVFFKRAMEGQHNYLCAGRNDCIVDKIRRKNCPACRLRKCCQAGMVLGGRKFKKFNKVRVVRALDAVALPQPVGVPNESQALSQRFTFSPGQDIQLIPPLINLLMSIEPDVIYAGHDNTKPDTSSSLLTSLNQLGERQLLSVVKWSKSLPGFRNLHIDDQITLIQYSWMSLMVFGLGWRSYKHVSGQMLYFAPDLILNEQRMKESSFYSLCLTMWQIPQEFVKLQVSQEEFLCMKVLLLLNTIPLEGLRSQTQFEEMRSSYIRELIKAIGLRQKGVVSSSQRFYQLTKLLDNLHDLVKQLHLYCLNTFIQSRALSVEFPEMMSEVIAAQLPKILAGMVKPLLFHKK

B1: full length progesterone receptor isoform B (PR-B) (receptor, human, UniProt P06401 1-933, looked up)
chain: MTELKAKGPRAPHVAGGPPSPEVGSPLLCRPAAGPFPGSQTSDTLPEVSAIPISLDGLLFPRPCQGQDPSDEKTQDQQSLSDVEGAYSRAEATRGAGGSSSSPPEKDSGLLDSVLDTLLAPSGPGQSQPSPPACEVTSSWCLFGPELPEDPPAAPATQRVLSPLMSRSGCKVGDSSGTAAAHKVLPRGLSPARQLLLPASESPHWSGAPVKPSPQAAAVEVEEEDGSESEESAGPLLKGKPRALGGAAAGGGAAAVPPGAAAGGVALVPKEDSRFSAPRVALVEQDAPMAPGRSPLATTVMDFIHVPILPLNHALLAARTRQLLEDESYDGGAGAASAFAPPRSSPCASSTPVAVGDFPDCAYPPDAEPKDDAYPLYSDFQPPALKIKEEEEGAEASARSPRSYLVAGANPAAFPDFPLGPPPPLPPRATPSRPGEAAVTAAPASASVSSASSSGSTLECILYKAEGAPPQQGPFAPPPCKAPGASGCLLPRDGLPSTSASAAAAGAAPALYPALGLNGLPQLGYQAAVLKEGLPQVYPPYLNYLRPDSEASQSPQYSFESLPQKICLICGDEASGCHYGVLTCGSCKVFFKRAMEGQHNYLCAGRNDCIVDKIRRKNCPACRLRKCCQAGMVLGGRKFKKFNKVRVVRALDAVALPQPVGVPNESQALSQRFTFSPGQDIQLIPPLINLLMSIEPDVIYAGHDNTKPDTSSSLLTSLNQLGERQLLSVVKWSKSLPGFRNLHIDDQITLIQYSWMSLMVFGLGWRSYKHVSGQMLYFAPDLILNEQRMKESSFYSLCLTMWQIPQEFVKLQVSQEEFLCMKVLLLLNTIPLEGLRSQTQFEEMRSSYIRELIKAIGLRQKGVVSSSQRFYQLTKLLDNLHDLVKQLHLYCLNTFIQSRALSVEFPEMMSEVIAAQLPKILAGMVKPLLFHKK
B2: C-terminal core DNA binding domain (aa 159-339) of human TATA-binding protein (TBPc) (domain or fragment, UniProt P20226 159-339, looked up)
chain: SGIVPQLQNIVSTVNLGCKLDLKTIALRARNAEYNPKRFAAVIMRIREPRTTALIFSSGKMVCTGAKSEEQSRLAARKYARVVQKLGFPAKFLDFKIQNMVGSCDVKFPIRLEGLVLTHQQFSSYEPELFPGLIYRMIKPRIVLLIFVSGKVVLTGAKVRAEIYEAFENIYPILKGFRKTT
B3: full length progesterone receptor isoform A (PR-A) (receptor, human, UniProt P06401-2 1-769, looked up)
chain: MSRSGCKVGDSSGTAAAHKVLPRGLSPARQLLLPASESPHWSGAPVKPSPQAAAVEVEEEDGSESEESAGPLLKGKPRALGGAAAGGGAAAVPPGAAAGGVALVPKEDSRFSAPRVALVEQDAPMAPGRSPLATTVMDFIHVPILPLNHALLAARTRQLLEDESYDGGAGAASAFAPPRSSPCASSTPVAVGDFPDCAYPPDAEPKDDAYPLYSDFQPPALKIKEEEEGAEASARSPRSYLVAGANPAAFPDFPLGPPPPLPPRATPSRPGEAAVTAAPASASVSSASSSGSTLECILYKAEGAPPQQGPFAPPPCKAPGASGCLLPRDGLPSTSASAAAAGAAPALYPALGLNGLPQLGYQAAVLKEGLPQVYPPYLNYLRPDSEASQSPQYSFESLPQKICLICGDEASGCHYGVLTCGSCKVFFKRAMEGQHNYLCAGRNDCIVDKIRRKNCPACRLRKCCQAGMVLGGRKFKKFNKVRVVRALDAVALPQPVGVPNESQALSQRFTFSPGQDIQLIPPLINLLMSIEPDVIYAGHDNTKPDTSSSLLTSLNQLGERQLLSVVKWSKSLPGFRNLHIDDQITLIQYSWMSLMVFGLGWRSYKHVSGQMLYFAPDLILNEQRMKESSFYSLCLTMWQIPQEFVKLQVSQEEFLCMKVLLLLNTIPLEGLRSQTQFEEMRSSYIRELIKAIGLRQKGVVSSSQRFYQLTKLLDNLHDLVKQLHLYCLNTFIQSRALSVEFPEMMSEVIAAQLPKILAGMVKPLLFHKK

Series [1] concerns the molecule itself. Put plainly: SEC.
Series [2] concerns the target B1. Put plainly: HDX-MS.
Series [3] has as its target B3. Put plainly: HDX-MS.
Series [4] has as its target T1, truncated PR-B (233-933). Briefly: HDX-MS.

For orientation: stoichiometry N means the number of molecules, sites or subunits per partner or assembly. On to B1, for which the “stoichiometry N” value in series [1] amounted to 2. Turning to B2, the binding result in series [2], in series [3] and in series [4] was “binds” in each case.

With B3, the “stoichiometry N” value in series [1] is 2.
